For the series, the target named is VIGILIN (Homo sapiens, UniProt Q00341 1-1268). Nature of the series: EMSA; 10 nM 32P-RNA, 0-10 uM protein, 250 mM KCl, 5 mM MgCl2, 25 mM Tris-HCl pH 7.5, 10% glycerol, 1 mg/ml acetylated BSA, 1.5 uM yeast tRNA, 25 C, 5 min; 1.2% agarose gel, 1x TBE. As to conditions: protein: recombinant; tags: His6 (expressed from pETM30-vigilin-His6); label: 5' 32P.
Sequence of VIGILIN (Q00341 whole entry): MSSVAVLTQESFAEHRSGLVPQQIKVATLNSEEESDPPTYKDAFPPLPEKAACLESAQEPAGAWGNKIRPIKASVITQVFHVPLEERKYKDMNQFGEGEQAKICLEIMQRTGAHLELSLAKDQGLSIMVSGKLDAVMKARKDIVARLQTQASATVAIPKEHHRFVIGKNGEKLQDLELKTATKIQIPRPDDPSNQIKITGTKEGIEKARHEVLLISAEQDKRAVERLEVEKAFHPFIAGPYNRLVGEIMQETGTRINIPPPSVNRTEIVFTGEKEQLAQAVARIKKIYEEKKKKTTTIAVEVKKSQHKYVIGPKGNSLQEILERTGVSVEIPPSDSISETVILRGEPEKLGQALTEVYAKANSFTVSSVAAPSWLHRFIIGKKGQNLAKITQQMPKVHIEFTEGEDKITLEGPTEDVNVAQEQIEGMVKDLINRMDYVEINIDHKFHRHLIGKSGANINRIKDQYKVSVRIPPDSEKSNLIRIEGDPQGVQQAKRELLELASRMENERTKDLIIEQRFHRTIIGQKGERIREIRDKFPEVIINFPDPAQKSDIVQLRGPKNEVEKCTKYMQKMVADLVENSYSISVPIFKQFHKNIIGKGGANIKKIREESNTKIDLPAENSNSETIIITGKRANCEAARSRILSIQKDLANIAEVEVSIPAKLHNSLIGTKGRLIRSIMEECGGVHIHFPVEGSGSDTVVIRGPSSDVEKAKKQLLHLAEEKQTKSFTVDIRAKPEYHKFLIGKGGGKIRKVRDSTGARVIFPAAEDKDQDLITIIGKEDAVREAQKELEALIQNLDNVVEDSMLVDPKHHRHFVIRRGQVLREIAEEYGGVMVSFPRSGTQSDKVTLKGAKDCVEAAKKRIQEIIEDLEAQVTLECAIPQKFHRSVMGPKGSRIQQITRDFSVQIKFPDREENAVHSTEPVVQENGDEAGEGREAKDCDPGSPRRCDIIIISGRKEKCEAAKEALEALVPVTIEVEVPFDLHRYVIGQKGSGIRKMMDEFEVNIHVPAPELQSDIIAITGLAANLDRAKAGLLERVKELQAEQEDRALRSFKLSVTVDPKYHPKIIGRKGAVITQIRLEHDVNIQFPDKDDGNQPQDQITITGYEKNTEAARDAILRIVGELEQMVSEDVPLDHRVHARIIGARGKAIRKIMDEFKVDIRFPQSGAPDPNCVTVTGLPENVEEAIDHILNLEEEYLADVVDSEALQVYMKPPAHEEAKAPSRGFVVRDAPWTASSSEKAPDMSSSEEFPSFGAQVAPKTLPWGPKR

As for GAUUUAACUCCACCUACUUCCAGGGC (ssRNA) [Apob binding site WT], the binding result is recorded as “binds”.
The entry for CUACCUCAAUAAUCAUCUUCUUCAGG (ssRNA) [fetuin-A (Ahsg) binding site WT] is “binds”.

Values taken from publication PMC5052685, “The RNA-binding protein vigilin regulates VLDL secretion through modulation of Apob mRNA translation”.
